# Patent US20260209316A1 (US Dept. of Health and Human Services, published 2026)
# Like-named read-outs stand apart in the source and are kept apart here.
# Experiments:
# [1] = molecular target: T1, SUDV GP on pseudotyped lentiviral vector (Sudan virus (SUDV), UniProt Q7T9D9 33-676); assay: cell-based or functional assay
# T1 sequence: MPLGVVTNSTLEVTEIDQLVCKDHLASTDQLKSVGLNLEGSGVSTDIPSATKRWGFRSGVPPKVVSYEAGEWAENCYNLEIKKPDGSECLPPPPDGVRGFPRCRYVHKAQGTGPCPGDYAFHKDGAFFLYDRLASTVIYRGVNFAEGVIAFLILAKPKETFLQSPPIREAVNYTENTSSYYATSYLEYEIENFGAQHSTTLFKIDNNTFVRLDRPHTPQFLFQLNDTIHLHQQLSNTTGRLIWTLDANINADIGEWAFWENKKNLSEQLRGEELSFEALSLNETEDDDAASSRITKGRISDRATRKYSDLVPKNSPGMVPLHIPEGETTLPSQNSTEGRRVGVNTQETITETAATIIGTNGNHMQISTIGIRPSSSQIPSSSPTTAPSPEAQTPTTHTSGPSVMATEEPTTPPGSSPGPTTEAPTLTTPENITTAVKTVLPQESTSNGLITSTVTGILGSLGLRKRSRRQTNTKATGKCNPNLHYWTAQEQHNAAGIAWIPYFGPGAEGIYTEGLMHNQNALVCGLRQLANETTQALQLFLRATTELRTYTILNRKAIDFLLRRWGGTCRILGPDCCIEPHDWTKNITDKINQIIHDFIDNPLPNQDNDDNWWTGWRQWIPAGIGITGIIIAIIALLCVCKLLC
# [2] = molecular target: T2, full-length Sudan GP (GPFL) (Sudan virus (SUDV), UniProt Q7T9D9 33-650); assay: ELISA on coated GP
# T2 construct: also called Sudan GPFL; GP(S)FL
# T2 sequence: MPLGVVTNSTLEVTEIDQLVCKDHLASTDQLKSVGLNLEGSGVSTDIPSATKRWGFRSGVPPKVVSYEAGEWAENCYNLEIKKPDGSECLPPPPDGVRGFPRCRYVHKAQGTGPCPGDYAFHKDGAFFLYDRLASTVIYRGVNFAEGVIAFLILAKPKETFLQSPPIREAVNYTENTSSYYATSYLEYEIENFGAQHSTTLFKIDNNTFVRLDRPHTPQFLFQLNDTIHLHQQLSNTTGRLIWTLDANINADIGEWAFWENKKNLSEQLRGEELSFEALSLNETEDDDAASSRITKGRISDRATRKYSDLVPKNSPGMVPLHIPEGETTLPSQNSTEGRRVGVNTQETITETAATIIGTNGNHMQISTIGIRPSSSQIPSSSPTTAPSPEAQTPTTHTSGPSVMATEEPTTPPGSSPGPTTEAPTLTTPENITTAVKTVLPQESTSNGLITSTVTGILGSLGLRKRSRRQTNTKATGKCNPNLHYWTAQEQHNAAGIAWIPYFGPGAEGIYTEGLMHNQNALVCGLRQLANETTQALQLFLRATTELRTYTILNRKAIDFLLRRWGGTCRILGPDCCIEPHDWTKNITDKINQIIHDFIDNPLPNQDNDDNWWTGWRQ
# [3] = molecular target: T1, SUDV GP on pseudotyped lentiviral vector; assay: cell-based or functional assay; remark: listed apart in the source
# [4] = molecular target: T2, full-length Sudan GP (GPFL); assay: ELISA on coated GP; remark: listed apart in the source
Binder,"IC50, microneutralization of GP-pseudotyped lentiviral vector on HEK293 cells [1]",EC50 [2],"IC50, microneutralization of GP-pseudotyped lentiviral vector on HEK293 cells [3]",EC50 [4]
"antibody 528S (antibody, V domains shown) VH: EVQLAESGGGVVQPGRSLRLSCAASGFTFNSYGMHWVRQAPGKGLEWVAVIWDDGSKKYYADSVKGRFTISRDNSKNTLFLQMNSLRAEDTAVYYCARETIMFTFGEVIVSSRDNYYMDVWGKGTTVTVSS VL: EIVLTQSPATLSLSPGERATLSCRASQSVSNYLAWYQQKPGQAPRLLIYDASTRAIGIPARFSGVGSGTDFTLTISSLEPEDFAVYYCQQRSNWPPLTFGGGTKVEIK",0.58 µg/mL,0.05 µg/mL,–,–
"antibody 102S (antibody, V domains shown) VH: EVQLVESGGGLVQPGGSLRLSCSASGFTFHSYDMNWARQAPGKGLEWVSEISSSGQSKNYADSVRGRFTISRDNAKNSLYLQINSLRSEDTAVYYCARVGFVAKFGSDFSITHGTYYLDYWGQGTLVTVSS VL: QLVLTQSPATLSLSPGERATLSCRASQSVSNYLAWYQQKPGQAPRLLIYDASNRAPGVPARFSGSGSGTDFSLTISSLEPEDFAVYYCLQRSNWPPWTFGQGTKVEIK",0.88 µg/mL,0.09 µg/mL,–,–
"antibody 315S (antibody, V domains shown) VH: EVQLVESGGGVVQPGRSLRLSCAASGFTFKTYTMHWVRQAPGKGLEWVAVITDDGVNKKYADSVKGRFTISRDNSKNTLYLQMNSLRLEDTAVYYCARSVVVLAAYPLDYWGQGTMVTVSS VL: DIQMTQSPSSLSASVGDRVTITCRASQTISTYLHWYQQRPGKAPKLLIYAASSLQSGVPSRVSGSGSGTDFTLTITSLQPEDFATYYCLQTYSLPLTFGGGTNVEIK",0.15 µg/mL,0.01 µg/mL,–,–
"antibody 578S (antibody, V domains shown) VH: EVQLVESGGGVVQPGRSLRLSCAASGFTFSSYELHWVRQAPGKGLEWVAVISYDGSSKYYADSLKGRFTISRDNSKNTLSLQMNSLRAEDTAMYYCVRQSEAYCSDGRCDWRRALDIWGQGTMVTVSP VL: DIQMTQSPSSLSASVGDRVTITCQASQDIKNYLNWYQQKPGKAPKLLIYDVSKLETGVPSRFSGSGSGTDFSFTISSLQPEDIATYYCQQYDNLPSYTFGQGTKLEIK",1.09 µg/mL,0.18 µg/mL,–,–
"antibody 294S (antibody, V domains shown) VH: QVQLQESGPGLVKPSQTLSLTCTVSGGSISSGGYHWSWIRQHPGKGLEWIGNIYYNGRTYYNPSLKSRVTISVDTSENEFSLKLSSVTAADTAVYYCARDRRRPRIGHDYGMDVWGQGTKVIVSS VL: DIQMTQSPSSLSASVGDRVTISCRASQSISNFLNWYQQKPGQAPKLLIYTASNLQSGVPSRFSGSGSGTDFTLTISSLQPEDFATYYCQQIYNTGMYSFGQGTKLEIKR",–,–,0.0192 µg/mL,0.0258 µg/mL
"antibody 338S (antibody, V domains shown) VH: EVQLVESGGGVVQPGRSLRLSCAASGFTFSQYGMHWVRQAPGKGLECVAVIWFDGSKKYYGDSVKGRFTISRDNSKNTLYLQMNSLRAEDTAVYFCARESLYYYDSGGHYYERGRIDYWGQGTLVTVSS VL: DIQMTQSPSSLSASVGDRVTITCRASQDISNFLAWFQQKPGKAPKSLIYAASSLLSGVPSKFSGSGSGTDFTLTISSLQPEDFATYYCQQYNSYPPTFGQGTKLEIK",0.6 µg/mL,0.03 µg/mL,–,–
"antibody 335S (antibody, V domains shown) VH: EVQLVESGGGVVQPGRSLRLSCAASGFSFSNYAMHWVRQAPGKGLEWVAVTWYDGSSKYHADSVKGRFTISRDNSKNTLYLQMNSLRAEDTAVYYCARWGMGIVASPGNVLNYYYFMDVWGQGTTVIVSS VL: SYELTQPPSVSVSPGQTARITCSGNPLPKKHTYWYQQKPGQAPVLMIYKDSERPSRIPERFSGSSSGTTVTLTISGVQAEDEADYYCQSADSTGIVVFGGGTKLTVL",0.63 µg/mL,0.02 µg/mL,–,–
"antibody 365S (antibody, V domains shown) VH: EVQLVESGGGLVQPGGSLRLSCAASGLTFSAYEMNWVRQAPGKGLEWVSHITTSGSAIYYADSVKGRFTISRDNAKNSLHLQMNRLRADDTAVYFCARDSTIVQCSGTSCHVSTYSYMDVWGKGTTVTVSS VL: EIVLTQSPATLSLSPGERATLSCRASQSVTTYLAWYQHKPGQAPRLLIYDASKRATGIPARFSGSGSGTDFTLTISSLEPEDFAVYHCQQRSSWPPITFGQGTRLEIK",0.79 µg/mL,0.11 µg/mL,–,–
"antibody 405S (antibody, V domains shown) VH: EVQLVESGGGLIQPGGSLRLSCAASGFTVSSHYMSWVRQAPGKGLEWVSGIYSGGRTHYADSVKGRFTISRDNSKNTLYLQMNSLRADDTAVYSCARGTLLYLYGMDVWGQGTTVTVSS VL: QSVLTQPPSVSAAPGQRVTISCTGSSSNIGAGYNVHWYQQLPGAAPKLLIYGNTNRPSGVPDRFSGSKSGTSASLAITGLQAEDEADYYCQSFDSSLSGVFGTGTKVTVL",0.79 µg/mL,0.06 µg/mL,–,–
"antibody 377S (antibody, V domains shown) VH: QVQLVQSGAEVKKPGSSVKVSCKASGGTFSNYAINWVRQAPGQGLEWMGRTIPFLGLTNYAENFQARVTITADKSTGTSYMQLSSLRSEDTAVYFCAKAATSGWSPFDNWGQGTLVTVSS VL: EIVLTQSPGTLSLSPGERATLSCRASQSISSSYFGWYQQKPGQAPRLLIYGASRRAAGIPDRFSCSGSGTDFTLTISRLEPEDFGVYYCQQYGSSPTFGQGTKVEIK",0.56 µg/mL,0.14 µg/mL,–,–
"antibody 573S (antibody, V domains shown) VH: EVQLVESGGGLVKPGGSLRLSCAASGFTFSSYTMNWVRQAPGKGLEWVSCIRSSSSDKYYADSVKGRFTISRDNTKNSLYLQMNSLRADDTAVYYCARDLGGANNRYYFDYGMDVWGQGTTVTVSS VL: EIVMTQSPATLSVSPGGRATLSCRASQSVYTNLAWYQQKPGQAPRLLIYDASTRATGIPARFSGSGSGTEFTLTISSLQCEDFAVYYCQHYNNWPLYTFGQGTKLEIK",–,–,0.188 µg/mL,0.221 µg/mL
"antibody 241S (antibody, V domains shown) VH: QVQLVQSGSELKKPGASVKVSCKASGYTFTSYTVNWVRQAPGQGLEWMGWINTNTGNPTYAQGFTGRFVFSSDTSVSTAYLQISDLKAEDTAMYYCARHVAYDLWSGHTVTFDHWGQGTLVTVSS VL: QSALTQPPSASGSPGQSVTISCTGTSSDVGAYNYVSWYQQHPGKAPKLIIYEVTKRPSGVPDRFSGSKSGNTASLTVSGLQAEDEADYYCSSKAGGKTYVFGTGTKVTVL",–,–,0.0275 µg/mL,0.232 µg/mL
"antibody 541S (antibody, V domains shown) VH: QVQLVQSGAEVKKPGASVKVSCKASGYTFTNYAITWVRQAPGQGLEWMGWISAFNGQINYAQKFQGRVAMTTDTSTSTAYMELRSLRSDDTAVYYCARAPPMWFSGAKFDYWGQGTLVTVSS VL: QSVLTQPPSVSGTPGQRVTISCSGSSSNIGSNTVNWYQQLPGTAPKLLIYSNDQRPSGVPDRFSGSKSGTSASLAISGLRSEDEADYYCAAWDETLRRVFGGGTRLTVL",–,–,0.478 µg/mL,0.368 µg/mL
"antibody 382S (antibody, V domains shown) VH: QVQLVQSGAEVKKPGSSVKVSCKASGGTFSNYGISWVRQAPGQGLEWMGRNIPIIGIANYAQKFQDRVTITADKSTSTVFMELRSLRYEDTAVYYCARDPLAARRGNWFDPWGQGTLVTVSS VL: DIQMTQSPSTLSASVGDRVTITCRASQSVSSWLAWYQQKPGKAPKLLIYDASTLQSGVPSRFSGSGSGTEFTLTISSLQPDDFATYYCQQYNSYSYTFGQGTKLEIK",0.71 µg/mL,0.35 µg/mL,–,–
"antibody 285S (antibody, V domains shown) VH: QVQLVQSGAEVKKPGSSVKVSCKASGGTFSTYAITWVRQAPGQGLEWMGRIIPILRVANYAQKFQGRVTITADSSTSTAYMELSSLRSEDTAVYYCANLLAYCGGDCRSDYWGQGTLVTVSS VL: EIVLTQSPGTLSLSPGERATLSCRASQSVKNSYLAWYHQKPGQAPRLLIYGASSRATGIPDRFSGSGSGTDFTLTISRLEPEDFAVYYCQQYGSSLWTFGQGTKVDVK",0.64 µg/mL,0.02 µg/mL,–,–
